Read-outs that look alike come from different tables or passages of the source.
B1: CR3022 (antibody)
heavy: not shown
light: […]
B2: SAD-S35 (antibody, human IgG1, kappa, V domains shown)
VH: QVQLVESGGGLVQPGGSLRLSCAASGITVSSNYMSWVRQAPGKGLEWVSVIYSGGSTYYADSVKGRFSISRDNSKNTLYLQMNSLRAEDTAVYYCARDLQERGGMDVWGQGTTVTVSS
VL: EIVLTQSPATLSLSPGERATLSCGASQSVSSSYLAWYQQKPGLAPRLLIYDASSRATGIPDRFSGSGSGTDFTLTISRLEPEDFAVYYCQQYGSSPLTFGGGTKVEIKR
notes: also called Acro Biosystems cat. #SAD-S35
B3: D001 (antibody, V domains shown)
VH: QVQLQQSGPELMKPGASVKISCKASGYSFTNYYIHWVKQSHGKSLEWIGYIDPFNGGTSDNLKFKGAATLTVDKSSSTAYMHLSSLTSEDSAVYYCARSEYDPYYVMDYWGQGTSVTVSS
VL: EIVLTQSPDTLSVTPGDSVSLSCRASQSISSNLHWYQQKSHESPRLLIKYASQSISGIPSRFSGSGSGTDFTLSINSVETEDFGIYFCQQTNFWPYTFGGGTKLEIKR
notes: also called Sino Biological cat. #40150-D001

Legend:
[1] = target: T1, polymeric immunoglobulin receptor (pIgR), his-tagged (human, UniProt P01833 19-638); assay: BLI (Octet), his-tagged pIgR on anti-His biosensor
[2] = target: T2, SARS-CoV-2 spike glycoprotein (his-tagged SARS-CoV-2 RBD) (SARS-CoV-2, UniProt P0DTC2 319-541); assay: BLI (Octet), his-tagged SARS-CoV-2 RBD on anti-His biosensor
T2 construct: domain: RBD; also called COVID-19 RBD; wild-type spike glycoprotein

[3] = target: T3, biotinylated SARS-CoV-2 spike glycoprotein (SARS-CoV-2, UniProt P0DTC2 16-1213)
[4] = target: T1, polymeric immunoglobulin receptor …; assay: BLI (Octet): his-tagged pIgR on anti-His (HIS2) biosensors, protein in solution at 10 µg/mL, 90 s association, 90 s dissociation
[5] = target: T3, biotinylated SARS-CoV-2 spike …; remark: listed apart in the source

T1 sequence (P01833 19-638 limits assumed): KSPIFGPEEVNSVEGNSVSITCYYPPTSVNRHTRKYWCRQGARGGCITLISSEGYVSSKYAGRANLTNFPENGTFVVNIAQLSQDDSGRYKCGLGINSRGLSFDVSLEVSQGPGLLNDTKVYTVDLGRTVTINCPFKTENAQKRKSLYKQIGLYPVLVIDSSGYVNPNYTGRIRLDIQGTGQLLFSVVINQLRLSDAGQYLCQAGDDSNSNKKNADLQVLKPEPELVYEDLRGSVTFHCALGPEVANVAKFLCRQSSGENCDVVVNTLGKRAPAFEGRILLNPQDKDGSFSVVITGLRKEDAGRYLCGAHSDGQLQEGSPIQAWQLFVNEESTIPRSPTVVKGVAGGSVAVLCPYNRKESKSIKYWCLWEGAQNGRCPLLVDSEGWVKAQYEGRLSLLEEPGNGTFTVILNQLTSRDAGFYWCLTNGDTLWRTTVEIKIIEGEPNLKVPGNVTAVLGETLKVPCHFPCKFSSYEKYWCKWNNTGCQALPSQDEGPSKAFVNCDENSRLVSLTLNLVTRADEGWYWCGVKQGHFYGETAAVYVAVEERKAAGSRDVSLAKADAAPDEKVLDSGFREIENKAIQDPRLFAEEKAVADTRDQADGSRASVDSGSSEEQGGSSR

Row | Binder | binding result [1] | Kd [2] | Relative Kd (compared to CR3022) [2] | koff [2] | IC50 [3] | binding result [4] | IC50 [5]
1 | B1 | no binding (tested: 10 µg/mL) |  |  |  |  |  | 
2 | B2 |  | 14.3 nM | 12 | 8.91e-06 s⁻¹ | 0.323 nM |  | 
3 | B3 |  | 15 nM |  | 1.1e-05 s⁻¹ | 0.299 nM | no binding (tested: 10 µg/mL) | 0.2 nM

Reference: US20220033522A1 (Janssen / Centocor, published 2022)
